Test results taken from paper PMC4513882.

Target: SAMHD1 wt (human) (UniProt Q9Y3Z3)
Test: AFM

Chain of SAMHD1 wt (human) (Q9Y3Z3 whole entry): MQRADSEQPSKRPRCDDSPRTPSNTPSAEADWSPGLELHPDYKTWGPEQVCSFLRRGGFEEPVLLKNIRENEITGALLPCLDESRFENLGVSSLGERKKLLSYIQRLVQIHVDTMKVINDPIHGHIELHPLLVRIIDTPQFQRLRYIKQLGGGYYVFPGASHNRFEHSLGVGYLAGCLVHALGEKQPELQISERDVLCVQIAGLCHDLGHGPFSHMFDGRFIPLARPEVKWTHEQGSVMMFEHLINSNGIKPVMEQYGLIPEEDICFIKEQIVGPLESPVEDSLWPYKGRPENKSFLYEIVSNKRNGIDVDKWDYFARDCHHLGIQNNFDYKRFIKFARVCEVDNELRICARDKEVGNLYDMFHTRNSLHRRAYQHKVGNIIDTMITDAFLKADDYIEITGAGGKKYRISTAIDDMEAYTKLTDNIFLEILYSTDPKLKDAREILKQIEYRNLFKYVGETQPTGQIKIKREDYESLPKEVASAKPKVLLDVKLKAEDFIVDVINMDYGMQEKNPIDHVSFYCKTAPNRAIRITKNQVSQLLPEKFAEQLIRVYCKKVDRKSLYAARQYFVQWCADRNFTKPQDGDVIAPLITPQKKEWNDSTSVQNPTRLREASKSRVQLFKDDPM

| Substance | binding signal (% ssDNA ends bound) | binding signal (% ssRNA ends bound) |
| --- | --- | --- |
| AFM DNA, 295 bp duplex with 60 nt ssDNA overhang | 26 |  |
| GGUUAUUCUCUUAUUUAUUCUAUCUAUCUCUCUCUUCUCUAUUUCCUCACAUCCUCUCUCACUCUCUAUCUCUAUCUCCUCUCUCUUCUCUCUCUCUCUCUCUCCUCUCUAUAUUCUUCUCUCUUCUCUCCUCUCCUCUCUCUCUCUCUUUAUUCUUCCACUUUUUUCCUUCUCACUUCUCUUCUUCUUUAUUCUUCUCAUCUCAUCUCAUCUCAUCUCAUCUCAUCUCAUCUCAUCUCAUCUCAUCUCAUCUCAUCUCAUCUCAUCUCAUCUCAUCUCAUCUCAUCUCAUCUCAUCUCAUCUCAGG / TGAGAAGAATAAAGAAGAAGAGAAGTGAGAAGGAAAAAAGTGGAAGAATAAAGAGAGAGAGAGAGGAGAGGAGAGAAGAGAGAAGAATATAGAGAGGAGAGAGAGAGAGAGAGAAGAGAGAGGAGATAGAGATAGAGAGTGAGAGAGGATGTGAGGAAATAGAGAAGAGAGAGATAGATAGAATAAATAAGAGAATAACC [AFM RNA, 200 bp RNA:DNA duplex with 102 nt ssRNA overhang] |  | 84 |
